According to patent US20220010021A1 (Sanofi, published 2022):

T1: human beta-Klotho (KLB) (human, UniProt Q86Z14 53-997)
T1 construct: Bought protein; also called human KLB; β-Klotho
T1 sequence (looked up): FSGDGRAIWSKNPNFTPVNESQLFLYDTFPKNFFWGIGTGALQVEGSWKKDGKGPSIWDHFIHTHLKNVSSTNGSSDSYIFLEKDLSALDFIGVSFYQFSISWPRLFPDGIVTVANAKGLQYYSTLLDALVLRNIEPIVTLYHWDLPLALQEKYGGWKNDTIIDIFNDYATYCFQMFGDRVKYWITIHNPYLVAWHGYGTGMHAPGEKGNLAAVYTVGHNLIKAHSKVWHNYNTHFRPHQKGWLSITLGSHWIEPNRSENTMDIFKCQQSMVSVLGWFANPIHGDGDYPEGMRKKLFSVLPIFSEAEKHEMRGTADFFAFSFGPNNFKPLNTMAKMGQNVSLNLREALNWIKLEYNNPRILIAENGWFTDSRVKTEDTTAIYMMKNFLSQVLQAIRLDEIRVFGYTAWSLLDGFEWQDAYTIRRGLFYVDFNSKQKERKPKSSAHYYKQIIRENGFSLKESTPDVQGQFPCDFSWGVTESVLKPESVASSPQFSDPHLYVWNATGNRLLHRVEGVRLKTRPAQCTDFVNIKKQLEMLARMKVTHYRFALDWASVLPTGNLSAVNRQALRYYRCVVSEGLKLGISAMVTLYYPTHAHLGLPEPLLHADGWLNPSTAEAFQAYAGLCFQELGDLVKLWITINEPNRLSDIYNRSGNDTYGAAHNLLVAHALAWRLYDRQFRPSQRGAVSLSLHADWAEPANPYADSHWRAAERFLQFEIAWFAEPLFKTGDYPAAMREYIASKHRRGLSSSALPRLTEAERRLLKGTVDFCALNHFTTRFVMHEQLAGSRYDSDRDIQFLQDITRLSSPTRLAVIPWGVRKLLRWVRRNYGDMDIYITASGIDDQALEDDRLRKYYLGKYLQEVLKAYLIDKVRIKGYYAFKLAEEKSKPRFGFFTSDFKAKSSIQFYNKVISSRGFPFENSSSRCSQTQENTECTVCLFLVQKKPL


What was measured:
[1] = target: cell surface receptor composed of FGFR1c and co-receptor beta-Klotho (KLB) (human, UniProt P11362 22-822; Q86Z14 1-1044); experiment: cell-based or functional assay; for Mean E max, Luciferase reporter gene assay: reference of the scale not given here
Chain of cell surface receptor composed of FGFR1c and co-receptor beta-Klotho (KLB) (P11362 22-822, chain 1 of 2): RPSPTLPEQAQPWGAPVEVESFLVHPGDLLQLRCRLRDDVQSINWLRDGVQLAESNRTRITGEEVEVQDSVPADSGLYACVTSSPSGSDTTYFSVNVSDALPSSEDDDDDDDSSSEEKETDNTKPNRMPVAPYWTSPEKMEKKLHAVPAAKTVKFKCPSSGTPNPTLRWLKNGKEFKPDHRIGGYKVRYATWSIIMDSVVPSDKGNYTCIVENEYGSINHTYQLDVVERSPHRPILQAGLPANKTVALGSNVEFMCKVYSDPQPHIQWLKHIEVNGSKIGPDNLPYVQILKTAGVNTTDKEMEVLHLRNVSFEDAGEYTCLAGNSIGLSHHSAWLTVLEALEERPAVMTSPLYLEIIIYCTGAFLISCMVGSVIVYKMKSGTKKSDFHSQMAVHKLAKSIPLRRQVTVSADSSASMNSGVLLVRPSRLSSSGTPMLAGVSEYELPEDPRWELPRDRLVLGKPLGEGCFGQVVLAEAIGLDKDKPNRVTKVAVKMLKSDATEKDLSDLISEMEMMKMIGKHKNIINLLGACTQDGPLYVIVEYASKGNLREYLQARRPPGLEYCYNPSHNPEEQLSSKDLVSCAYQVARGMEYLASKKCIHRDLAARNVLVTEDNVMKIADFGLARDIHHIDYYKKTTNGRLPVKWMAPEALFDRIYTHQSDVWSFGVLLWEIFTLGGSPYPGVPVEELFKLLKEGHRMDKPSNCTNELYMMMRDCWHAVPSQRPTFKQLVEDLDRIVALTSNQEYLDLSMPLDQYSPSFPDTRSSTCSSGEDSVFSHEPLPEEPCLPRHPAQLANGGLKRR
Chain of cell surface receptor composed of FGFR1c and co-receptor beta-Klotho (KLB) (Q86Z14 whole entry, chain 2 of 2): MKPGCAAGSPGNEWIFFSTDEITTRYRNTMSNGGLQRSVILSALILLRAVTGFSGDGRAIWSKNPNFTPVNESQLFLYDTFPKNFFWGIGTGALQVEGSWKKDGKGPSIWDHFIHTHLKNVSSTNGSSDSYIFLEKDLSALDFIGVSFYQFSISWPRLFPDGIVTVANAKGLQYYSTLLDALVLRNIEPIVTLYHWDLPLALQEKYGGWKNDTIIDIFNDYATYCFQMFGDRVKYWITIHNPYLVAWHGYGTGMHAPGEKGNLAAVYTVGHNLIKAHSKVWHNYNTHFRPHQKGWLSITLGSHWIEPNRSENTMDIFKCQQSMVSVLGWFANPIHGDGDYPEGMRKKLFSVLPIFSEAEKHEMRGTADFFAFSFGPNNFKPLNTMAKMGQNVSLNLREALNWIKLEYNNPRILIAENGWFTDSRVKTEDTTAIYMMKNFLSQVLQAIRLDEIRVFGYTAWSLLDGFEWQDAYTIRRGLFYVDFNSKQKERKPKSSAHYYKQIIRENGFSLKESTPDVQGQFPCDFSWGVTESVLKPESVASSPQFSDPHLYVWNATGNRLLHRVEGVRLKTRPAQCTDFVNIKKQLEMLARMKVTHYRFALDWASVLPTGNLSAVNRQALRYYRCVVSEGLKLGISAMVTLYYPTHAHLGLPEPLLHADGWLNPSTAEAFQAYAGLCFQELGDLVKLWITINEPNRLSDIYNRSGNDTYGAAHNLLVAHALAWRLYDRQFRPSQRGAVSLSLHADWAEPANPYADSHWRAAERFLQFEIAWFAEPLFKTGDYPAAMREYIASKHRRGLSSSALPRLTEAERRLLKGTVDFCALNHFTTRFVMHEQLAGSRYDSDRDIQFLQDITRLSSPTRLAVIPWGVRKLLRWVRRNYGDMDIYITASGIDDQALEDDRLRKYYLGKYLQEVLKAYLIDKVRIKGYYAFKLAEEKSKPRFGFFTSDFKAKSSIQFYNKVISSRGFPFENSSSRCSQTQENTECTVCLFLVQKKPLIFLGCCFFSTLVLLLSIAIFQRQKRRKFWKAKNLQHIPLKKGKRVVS

human beta-Klotho (KLB) = target: T1, human beta-Klotho (KLB); experiment: BLI off-rate screening (Octet), crude supernatant;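 note: supernatants tested at 25 µg/mL, dissociation from biosensors recorded in D-PBS with 0.1% BSA over 1800 s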

| Binder | Mean E max, Luciferase reporter gene assay [1] [%] | Mean EC50, Luciferase reporter gene assay [1] [nM] | koff (human beta-Klotho (KLB)) [s⁻¹] |
| --- | --- | --- | --- |
| 16H7 light chain variant D50Q (antibody, IgG4, V domains shown, IgG4 backbone) VH: not shown VL: SYVLTQPPSVSVAPGQTARITCGGNNIGSESVHWYQQKPGQAPVLVVYDQSDRPSGIPERFSGSNSGNTATLTISRVEAGDEADYYCQVWDGNSDHVVFGGGTKLTVLG | 107 | 0.171 | 7.9e-05 |
| 16H7 light chain variant D95A (antibody, IgG4, V domains shown, IgG4 backbone) VH: not shown VL: SYVLTQPPSVSVAPGQTARITCGGNNIGSESVHWYQQKPGQAPVLVVYDDSDRPSGIPERFSGSNSGNTATLTISRVEAGDEADYYCQVWDGNSAHVVFGGGTKLTVLG | 12 |  | 0.0002 |
| 16H7 light chain variant D50T (antibody, IgG4, V domains shown, IgG4 backbone) VH: not shown VL: SYVLTQPPSVSVAPGQTARITCGGNNIGSESVHWYQQKPGQAPVLVVYDTSDRPSGIPERFSGSNSGNTATLTISRVEAGDEADYYCQVWDGNSDHVVFGGGTKLTVLG | 104 | 0.12 | 3.9e-05 |
| 16H7 light chain variant D50W (antibody, IgG4, V domains shown, IgG4 backbone) VH: not shown VL: SYVLTQPPSVSVAPGQTARITCGGNNIGSESVHWYQQKPGQAPVLVVYDWSDRPSGIPERFSGSNSGNTATLTISRVEAGDEADYYCQVWDGNSDHVVFGGGTKLTVLG | 108 | 0.145 | 0.00017 |
| 16H7 light chain variant D95M (antibody, IgG4, V domains shown, IgG4 backbone) VH: not shown VL: SYVLTQPPSVSVAPGQTARITCGGNNIGSESVHWYQQKPGQAPVLVVYDDSDRPSGIPERFSGSNSGNTATLTISRVEAGDEADYYCQVWDGNSMHVVFGGGTKLTVLG | 8 |  | 1.4e-05 |
| 16H7 light chain variant D50R (antibody, IgG4, V domains shown, IgG4 backbone) VH: not shown VL: SYVLTQPPSVSVAPGQTARITCGGNNIGSESVHWYQQKPGQAPVLVVYDRSDRPSGIPERFSGSNSGNTATLTISRVEAGDEADYYCQVWDGNSDHVVFGGGTKLTVLG | 110 | 0.122 | 0.00013 |
| 16H7 light chain variant D95I (antibody, IgG4, V domains shown, IgG4 backbone) VH: not shown VL: SYVLTQPPSVSVAPGQTARITCGGNNIGSESVHWYQQKPGQAPVLVVYDDSDRPSGIPERFSGSNSGNTATLTISRVEAGDEADYYCQVWDGNSIHVVFGGGTKLTVLG | 4 |  | 0.00016 |
| 16H7 light chain variant D50Y (antibody, IgG4, V domains shown, IgG4 backbone) VH: not shown VL: SYVLTQPPSVSVAPGQTARITCGGNNIGSESVHWYQQKPGQAPVLVVYDYSDRPSGIPERFSGSNSGNTATLTISRVEAGDEADYYCQVWDGNSDHVVFGGGTKLTVLG | 113 | 0.157 | 0.00016 |
| 16H7 light chain variant D50S (antibody, IgG4, V domains shown, IgG4 backbone) VH: not shown VL: SYVLTQPPSVSVAPGQTARITCGGNNIGSESVHWYQQKPGQAPVLVVYDSSDRPSGIPERFSGSNSGNTATLTISRVEAGDEADYYCQVWDGNSDHVVFGGGTKLTVLG | 100 | 0.118 | 4.1e-06 |
| 16H7 light chain variant D95H (antibody, IgG4, V domains shown, IgG4 backbone) VH: not shown VL: SYVLTQPPSVSVAPGQTARITCGGNNIGSESVHWYQQKPGQAPVLVVYDDSDRPSGIPERFSGSNSGNTATLTISRVEAGDEADYYCQVWDGNSHHVVFGGGTKLTVLG | 33 | 29.7 | 8.1e-06 |
| 16H7 light chain variant D50V (antibody, IgG4, V domains shown, IgG4 backbone) VH: not shown VL: SYVLTQPPSVSVAPGQTARITCGGNNIGSESVHWYQQKPGQAPVLVVYDVSDRPSGIPERFSGSNSGNTATLTISRVEAGDEADYYCQVWDGNSDHVVFGGGTKLTVLG | 105 | 0.106 | 2.2e-05 |
